“Also recorded” adds a separate entry of the source.
How the values were obtained:
Assay type in all cases: biochemical
[1] = Hydrolysis of 20% (wt/vol) TKP/dTKP, XGOS release by HPAEC-PAD; conditions: 20% (wt/vol) dTKP/TKP, 60° C.
Experimental: For XGOS release 20% (wt/vol) 8 g of TKP or dTKP was dissolved in 40 ml demineralized water at 60° C. The enzyme was added at the desired concentrations, 3%, 0.65%, 0.05%, 0.03% or 0.006% (wt/wt TKP) referred to the substrate load. Incubation of the reaction mixture was carried out on a rotary shaker at 125 rpm and 60° C. The hydrolysis process was monitored by taking samples at different time points. The samples were centrifuged and the supernatant boiled for 5 min at 95° C. to denature residual proteins. For analysis, samples of the supernatant were withdrawn, tenfold diluted with double deionized water and measured by HPAEC-PAD.
For the analysis by HPAEC-PAD an ICS 3000 Dionex chromatography system from Thermo Fisher Scientific (Waltham, USA) equipped with a CarboPac™ PA1 column (4×250 mm) and a PA1-precolumn (4×50 mm) was used. The system was set up using PEEK tubing (0.25 mm i.d.), a GM-4 gradient mixer (2 mm), an ED amperometry cell with 0.25 microL channel volume, a pH-Ag/AgCl reference electrode, 0.002″ gasket and disposable gold electrodes. Runs were performed at a column temperature of 30° C. with an injection volume of 25 microL and a flow rate of 1 mL/min. […]
Quantification was performed using a XGOS standard mixture from Megazyme with 0.4 g/L, 0.2 g/L, 0.1 g/L, and 0.05 g/L.

[2] = Ki determination (end product inhibition) on Azo-Xyloglucan in presence of xyloglucan oligosaccharides; conditions: inhibition by xyloglucan oligosaccharides; non-competitive inhibition model; substrate 1-20 g/l
Experimental: To evaluate the suitability of SEQ ID NOs 1-4 for TKP hydrolysis, the Ki value of SEQ ID NO 3 was determined. Enzymatic activity was measured on Azo-Xyloglucan (Megazyme) according to the manufacturer's instruction. Substrate concentrations of 1-20 g/I were chosen and enzymatic activity was measured in the presence of increasing concentrations of xyloglucan oligosaccharides. Mode of Inhibition was assessed using a Lineweaver-Burke plot.

[3] = Specific enzyme activity, reducing sugars by DNSA assay; conditions: dockerin domain deleted
Experimental: Enzyme activity: the release of micromol reducing sugars from arabinoxylan per mg of enzyme was determined with the DNSA assay.
Specific enzyme activity was determined by using a model substrate such as barley-beta-glucan (Megazyme). Endoglucanase activity is defined as the generation of reducing sugars from the model substrate. One unit of enzyme activity is defined as the amount of reducing sugars in micromol generated per mg of enzyme in one minute at 60° C. To define the enzyme profile and temperature and pH optimum the endoglucanases (50 ng/reaction) were incubated for 30 minutes at a temperature range from 50 to 80° C. in presence of 1% (wt/vol) barley-beta-glucan solved in citrate buffer with varying pH (range 4.0-8.0) (solution A: 0.2 M citric acid, 0.1 M NaCl; solution B: 0.4 M Na2HPO4, 0.1 M NaCl). Reducing sugars were measured by 3,5-dinitrosalicylic acid (DNSA) method: 50 microL sample were mixed with 75 microL DNSA-solution (10 g/L DNSA, 200 g/L K^+-Na^+-Tartrate, 10 g/L NaOH, 0.5 g/L Na2SO4, 2 g/L Phenol) in microtiter plates, incubated for 5 minutes at 95° C., cooled on ice and the absorption determined at 540 nm. For calibration, glucose solutions between 0 and 2 mg/mL were used.

B1: SEQ ID NO 2: wildtype glycoside hydrolase family 5 endoglucanase from Herbivorax saccincola DSM101079 (protein, listed as Herbivorax saccincola)
chain: STAYTGMRDITSLELVNEMRIGWNLGNTLDAIGGETNWGNPKTTKEMIDKVKEMGFNTVRFPVTWGGHVGPAPDYKIDEGWLNRVEEVVNYALSNDMYAIINLHHENSWLVPTYAQEKRSTEQLVKIWEQVATRFKDYGDYLIFETMNEPRVENSPYEWSGGTPENRHVINNFNLAAVNTIRSTGGNNAKRHIMIPAHAASAIDIALNDLVIPNNDDRIIISVHNYSPYFFAMDVNGTASWGSDYDKASLAAELEALYNRFIKNGRAVVIGEFGSINKNNLSDRIRHAEFFAKEARKRGITVIWWDNGYNEGGKAESYALLDRRNLTWYHPEIAEALVRGAGGVPEPTPTPTPEPTPSPGEDILYGDLNGDGIINSIDYNLLNRYILEVIDDLPVENYSKVADLNGDGVINSNDAVLLGRFILEIVDKFPVDK
[1]; 0.03% (wt/wt) enzyme
  hydrolysis of TKP to DP7-DP9 after 24 h: Complete hydrolysis; also recorded: completely

B2: SEQ ID NO 3: endoglucanase obtained from SEQ ID NO: 1 by deleting the dockerin domain (protein)
chain: AKITENYQFDSRIRLNSIGFIPNHSKKATIAANCSTFYVVKEDGTIVYTGTATSMFDNDTKETVYIADFSSVNEEGTYYLAVPGVGKSVNFKIAMNVYEDAFKTAMLGMYLLRCGTSVSATYNGIHYSHGPCHTNDAYLDYINGQHTKKDSTKGWHDAGDYNKYVVNAGITVGSMFLAWEHFKDQLEPVALEIPEKNNSIPDFLDELKYEIDWILTMQYPDGSGRVAHKVSTRNFGGFIMPENEHDERFFVPWSSAATADFVAMTAMAARIFRPYDPQYAEKCINAAKVSYEFLKNNPANVFANQSGFSTGEYATVSDADDRLWAAAEMWETLGDEEYLRDFENRAAQFSKKIEADFDWDNVANLGMFTYLLSERPGKNPALVQSIKDSLLSTADSIVRTSQNHGYGRTLGTTYYWGCNGTVVRQTMILQVANKISPNNDYVNAALDAISHVFGRNYYNRSYVTGLGINPPMNPHDRRSGADGIWEPWPGYLVGGGWPGPKDWVDIQDSYQTNEIAINWNAALIYALAGFVNYN
modifications: Recombinat polypeptide
[1]; 0.006% (wt/wt) enzyme
  degree of hydrolysis after 24 h: over 80%
[2]
  Ki: 16.8 mM
[3]; SEQ ID NO 1 activity set to 100%
  enzyme activity increase in comparison to SEQ ID NO 1: 4 fold

B3: SEQ ID NO 4: endoglucanase obtained from SEQ ID NO: 2 by deleting the dockerin domain (protein)
chain: STAYTGMRDITSLELVNEMRIGWNLGNTLDAIGGETNWGNPKTTKEMIDKVKEMGFNTVRFPVTWGGHVGPAPDYKIDEGWLNRVEEVVNYALSNDMYAIINLHHENSWLVPTYAQEKRSTEQLVKIWEQVATRFKDYGDYLIFETMNEPRVENSPYEWSGGTPENRHVINNFNLAAVNTIRSTGGNNAKRHIMIPAHAASAIDIALNDLVIPNNDDRIIISVHNYSPYFFAMDVNGTASWGSDYDKASLAAELEALYNRFIKNGRAVVIGEFGSINKNNLSDRIRHAEFFAKEARKRGITVIWWDNGYNEGGKAESYALLDRRNLTWYHPEIAEALVRGAGGVPEPTPTPTPEPTPSPG
[3]; SEQ ID NO 2 activity set to 100%
  enzyme activity increase in comparison to wildtype SEQ ID NO 2: 7 fold

Source: US11618913B2, “Method for preparing xyloglucan-oligosaccharides” (TECHNISCHE UNIVERSITÄT MÜNCHEN, priority 2017, dated 2023)
